Data taken from US20230295259A1 (Protagonist Therapeutics, Inc., priority 2020, published 2023).
Starred links: 1 amine or outer side, 2 acyl side, 3 side chain; linkers in the order of their positions; H or OH if unused. Non-standard residues stand in square brackets, D forms with d. Groups on a side chain read outwards from the residue. *: point of attachment. Gal = N6-(4-(galactopyranosyloxy)butanoyl) on the lysine side chain; C18 diacid = O=C(O)CCCCCCCCCCCCCCCCC(=O)*; Dip = N[C@H](C(=O)O)C(c1ccccc1)c1ccccc1; γGlu = O=C(O)[C@H](CCC(=O)[*:2])N[*:1]; Palmitoyl = CCCCCCCCCCCCCCCC(=O)*; β3hF = N[C@H](CC(=O)O)Cc1ccccc1; 4Amb = NCc1ccc(C(=O)O)cc1; Isovaleryl = CC(C)CC(=O)*; NMeA = CN[C@@H](C)C(=O)O; AEEA = NCCOCCOCC(=O)O; Acryloyl = C=CC(=O)*; Ahx = NCCCCCC(=O)O

T1: human ferroportin (SLC40A1) fused in frame with GFP, stably expressed in HEK293 cells (human, UniProt Q9NP59 1-571)
T1 sequence (looked up): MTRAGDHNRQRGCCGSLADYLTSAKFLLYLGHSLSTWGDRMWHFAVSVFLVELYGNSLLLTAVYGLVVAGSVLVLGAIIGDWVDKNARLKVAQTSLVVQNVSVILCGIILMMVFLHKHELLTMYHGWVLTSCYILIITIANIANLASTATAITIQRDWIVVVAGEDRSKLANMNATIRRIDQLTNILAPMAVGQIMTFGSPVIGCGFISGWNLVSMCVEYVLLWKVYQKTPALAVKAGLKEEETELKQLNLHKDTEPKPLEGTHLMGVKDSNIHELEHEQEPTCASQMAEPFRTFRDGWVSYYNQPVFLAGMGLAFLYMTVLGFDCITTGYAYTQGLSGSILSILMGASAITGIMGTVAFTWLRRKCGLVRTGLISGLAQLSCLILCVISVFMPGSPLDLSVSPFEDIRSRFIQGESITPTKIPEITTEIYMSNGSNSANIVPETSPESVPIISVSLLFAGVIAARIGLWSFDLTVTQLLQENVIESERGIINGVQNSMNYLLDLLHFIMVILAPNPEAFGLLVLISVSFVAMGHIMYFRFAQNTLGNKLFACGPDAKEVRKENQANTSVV


What follows are molecules tested on LAD2 cells (assay: not given). Details: not given.
Type: cell-based, human
From the text: In anaphylactoid reactions, the main mechanism involves the direct stimulation of mast cells or basophils, leading to the release of anaphylactic mediators such as histamine and β-hexosaminidase. A recent study by McNeil et al. (McNeil B D et al., 2015) reported that MrgprX2, a specific membrane receptor on human mast cells, induces anaphylactoid reactions. The LAD2 (Laboratory of Allergic Diseases 2) human mast cell line, derived from human mast cell sarcoma/leukemia (Kirshenbaum et al., 2003), is commonly employed to study anaphylactoid reactions, because its biological properties are identical to those of primary human mast cells, including the overexpression of the MrgprX2 receptor and sensitivity towards degranulating peptides (Kulka et al., 2008). The release of anaphylactic mediators such as f-hexosaminidase, is assessed by fluorometric quantification.
On the day of the assay, serial dilutions of compounds were added to LAD2 cells plated at 20000 cells/well in a 96-well plate. After incubation for 30 minutes, the amount of β-hexosaminidase released into the supernatants and in cell lysates was quantified using the fluorogenic substrate 4-methylumbelliferyl-N-acetyl-b-D-glucosaminide. Dose-response curves were generated by plotting the % of β-hexosaminidase release (y-axis) against the concentrations of peptides tested (x-axis). […]. (Table 2D).

EC50 | Molecule
> 100000 nM | CC[C@H](C)[C@@H]1NC(=O)[C@@H](NC(=O)[C@@H]2CCCN2C(=O)[C@@H](NC(=O)[C@H](Cc2cnc[nH]2)NC(=O)[C@@H](NC(=O)[C@H](CCC(=O)O)NC(=O)CC(C)C)[C@@H](C)O)C(c2ccccc2)c2ccccc2)CSSC[C@@H](C(N)=O)NC(=O)[C@@H](CCCCNC(=O)CCOCCOCCOCCOCCOCCOCCOCCOC)NC(=O)C[C@H](Cc2ccccc2)NC(=O)[C@H](CCCCNC(=O)COCCOCCNC(=O)COCCOCCNC(=O)CCCCCNC(=O)CCCCCCCCCCCCCCCCC(=O)O)NC1=O [Compound 256, Isovaleric Acid-E-T-H-[Dpa]-P—C—I-[Lys(1PEG2_1PEG2_Ahx_C18_Diacid)]-[bhPhe]-[(D)Lys(PEG7_OMe)]—C—NH2]

Same assay, conditions: LAD2 mast cells, β-hexosaminidase release, 30 minutes incubation; read-out: EC50: LAD2

Molecule | EC50
Isovaleric Acid-E-T-H-F—P—C—I-[Lys(IsoGlu_Palm)]-F-E-P—R-S—K-G-C—NH2 [Compound 225] | 4800 nM
Isovaleric Acid-E-T-H—F—P—C—I-[Lys(IsoGlu_Palm)]-F-E-P—R-S-G-C—NH2 [Compound 226] | 15700 nM
Isovaleric Acid-E-T-H-[Dpa]-P—C—I-[Lys(1PEG2_1PEG2_IsoGlu_C16_Diacid)]-[bhPhe]-[(D)Lys]-C—NH2 [Compound 232] | > 100000 nM
Isovaleric Acid-E-T-H-[Dpa]-P—C—I-[Lys(1PEG8_IsoGlu_C18_Diacid)]-[bhPhe]-[(D)Lys]-C—NH2 [Compound 238] | > 100000 nM
Isovaleric Acid-E-T-H-[Dpa]-P—C—I-[Lys(PEG4_IsoGlu_C18_Diacid)]-[bhF]-[(D)Lys]-C—NH2 [Compound 239] | > 100000 nM
Isovaleric Acid-E-T-H—F—P—C—I-[Lys(1PEG2_1PEG2_IsoGlu_C18_Diacid)]-F-E-P—R—S—K-G-C—K—NH2 [Compound 220] | > 33000 nM
Isovaleric Acid-E-T-H-[Dpa]-P—C—I-[Lys(PEG4_PEG4_IsoGlu_C18_Diacid)]-[bhF]-[(D)Lys]-C—NH2 [Compound 237] | > 100000 nM

The molecules below were run against T1, human ferroportin (SLC40A1) fused in … (assay: cell-based or functional assay). Details: not given.

IC50: FPN internalisation | Molecule
39.2 nM | Isovaleryl-ETH[Dip]SCIK([AEEA-AEEA-γGlu-C18 diacid])[β3hF][dK]C-NH2 (not fully specified (bridges); cysteine pairing not given here) [Seq. No. 558]
8.47 nM | Isovaleryl-ETH[Dip]PCI[dK]AK([Ahx-Palmitoyl])[dK]C-NH2 (not fully specified (bridges); cysteine pairing not given here) [Seq. No. 572]
10.2 nM | Isovaleryl-ETH[Dip]ACI[dK][β3hF]K([Ahx-Palmitoyl])[dK]C-NH2 (not fully specified (bridges); cysteine pairing not given here) [Seq. No. 574]
1190 nM | XETHXPCIXXXC (not fully specified; [Isovaleric Acid]-E-T-H-[Dpa]-P-C-I-[(D)Lys]-[bhPhe]-[Lys(1PEG2_1PEG2_IsoGlu_C18_Diacid)]-C-OH) [Seq. No. 563]
30.8 nM | Isovaleryl-ETH[Dip][NMeA]CI[dK][β3hF]K([Ahx-Palmitoyl])[dK]C-NH2 (not fully specified (bridges); cysteine pairing not given here) [Seq. No. 567]
400 nM | Isovaleryl-ETH[Dip]PC[dK](Gal)K([AEEA-AEEA-Ahx-C18 diacid])[β3hF][dK]C-NH2 (not fully specified (bridges); cysteine pairing not given here) [Seq. No. 560]
103 nM | Isovaleryl-ETH[Dip]K(Acryloyl)CI[dK][β3hF]K([Ahx-Palmitoyl])[dK]C-NH2 (not fully specified (bridges); cysteine pairing not given here) [Seq. No. 554]
12.7 nM | Isovaleryl-ETHLPCI[dK][β3hF]K([Ahx-Palmitoyl])[dK]C-NH2 (not fully specified (bridges); cysteine pairing not given here) [Seq. No. 570]
31.2 nM | Isovaleryl-ETH[Dip]PC[dK][β3hF]K([Ahx-Palmitoyl])[dK]C-NH2 (not fully specified (bridges); cysteine pairing not given here) [Seq. No. 571]
15.4 nM | Isovaleryl-ETH[Dip]PCI[dK]K(Acryloyl)K([Ahx-Palmitoyl])[dK]C-NH2 (not fully specified (bridges); cysteine pairing not given here) [Seq. No. 556]
18.4 nM | {Cyclohexanoic Acid}-ETH[Dip]PCK([AEEA-AEEA-γGlu-C18 diacid])[β3hF][dK]C-NH2 (not fully specified (bridges); cysteine pairing not given here) [Seq. No. 562]
687 nM | XETXXPCIXXXC (not fully specified; [Isovaleric Acid]-E-T-[N-(Imidazolethyl)Gly]-[Dpa]-P-C-I-[Lys(1PEG2_1PEG2_Ahx_C18_Diacid)]-[bhPhe]-[(D)Lys]-C-NH2) [Seq. No. 564]
2 nM | Isovaleryl-ETH[Dip]PCCK([AEEA-AEEA-Ahx-C18 diacid])[β3hF][dK]-NH2 (not fully specified (bridges); cysteine pairing not given here) [Seq. No. 577]
6.47 nM | Isovaleryl-ETH[Dip]PCA[dK][β3hF]K([Ahx-Palmitoyl])[dK]C-NH2 (not fully specified (bridges); cysteine pairing not given here) [Seq. No. 573]
11.8 nM | Isovaleryl-ETH[Dip]PCI[dK]LK([Ahx-Palmitoyl])[dK]C-NH2 (not fully specified (bridges); cysteine pairing not given here) [Seq. No. 568]
14.2 nM | XXTHXPCIXXXC (not fully specified; [Isovaleric Acid]-[Dap]-T-H-[Dpa]-P-C-I-[Lys(1PEG2_1PEG2_Ahx_C18_Diacid)]-[bhPhe]-[(D)Lys]-C-NH2) [Seq. No. 557]
17.9 nM | Isovaleryl-ETH[Dip]PCK(Gal)K([AEEA-AEEA-Ahx-C18 diacid])[β3hF][dK]C-NH2 (not fully specified (bridges); cysteine pairing not given here) [Seq. No. 561]
83 nM | Isovaleryl-ETHAPCI[dK][β3hF]K([Ahx-Palmitoyl])[dK]C-NH2 (not fully specified (bridges); cysteine pairing not given here) [Seq. No. 575]
17.4 nM | Isovaleryl-ETH[Dip]PC[dK](Acryloyl)[dK][β3hF]K([Ahx-Palmitoyl])[dK]C-NH2 (not fully specified (bridges); cysteine pairing not given here) [Seq. No. 555]
18.7 nM | XEXHXPCIXXXC (not fully specified; [Isovaleric Acid]-E-[N-(hydroxyethyl)Gly]-H-[Dpa]-P-C-I-[Lys(1PEG2_1PEG2_Ahx_C18_Diacid)]-[bhPhe]-[(D)Lys]-C-NH2) [Seq. No. 565]
31.8 nM | Isovaleryl-ETH[Dip]PC[4Amb][β3hF]K([Ahx-Palmitoyl])[dK]C-NH2 (not fully specified (bridges); cysteine pairing not given here) [Seq. No. 566]
50.2 nM | Isovaleryl-ETH[Dip]LCI[dK][β3hF]K([Ahx-Palmitoyl])[dK]C-NH2 (not fully specified (bridges); cysteine pairing not given here) [Seq. No. 569]
385 nM | Isovaleryl-ETHK(Acryloyl)PCI[dK][β3hF]K([Ahx-Palmitoyl])[dK]C-NH2 (not fully specified (bridges); cysteine pairing not given here) [Seq. No. 553]
